{"source": "the DeepSol protein solubility set", "assay": "soluble on expression in E. coli; label from the status in PepcDB or PDB records", "data": [{"sequence": "MLRDKSVNLDDGDPFTIALFGVDSNAERNANGGGQRSDTIMVLSVNPEKKTTEIVSIPRDTQADIVGKGTTEKINHAYAYGGPDMAVKSLEKLLNVPIDHYATIDMDGMQDMIDTVGGITVTSNATFSYDGYQFTEGERSKMDGKEAMAFIRSRKEDGAGGDFGRQERQQLVIQGLANKLTSVSSITHFNSLMNHVEDNVKTDLSVGELNKVRSNYKDANDNVNRHQLEGQGGIQDDGLYYFVPSENSLNEIETNVKDNLGILEHHHHHH", "values": [{"measurement": "soluble on expression in E. coli", "value": "soluble"}]}, {"sequence": "DDIKVAVVGAMSGPIAQWGDMEFNGARQAIKDINAKGGIKGDKLVGVEYDDACDPKQAVAVANKIVNDGIKYVIGHLCSSSTQPASDIYEDEGILMISPGATNPELTQRGYQHIMRTAGLDSSQGPTAAKYILETVKPQRIAIIHDKQQYGEGLARSVQDGLKAANANVVFFDGITAGEKDFSALIARLKKENIDFVYYGGYYPEMGQMLRQARSVGLKTQFMGPEGVGNASLSNIAGDAAEGMLVTMPKRYDQDPANQGIVDALKADKKDPSGPYVWITYAAVQSLATALERTGSDEPLALVKDLKANGANTVIGPLNWDEKGDLKGFDFGVFQWHADGSSTKAK", "values": [{"measurement": "soluble on expression in E. coli", "value": "soluble"}]}, {"sequence": "MKKEANFDEVLFSLGQEVIQVLIRRGASLEDAQDAVSQTYTTIFSILPEITSENLRPWFFRVTFNYYITMYRKKKRERTFVANSHPVQSIEKMEGQELLLLIDSLKDEEQELVLLKYYYQLSYAEIALILELSVENVRKKLYRTRQKLKKELEE", "values": [{"measurement": "soluble on expression in E. coli", "value": "not soluble"}]}, {"sequence": "MIGSYLKIDSKPLSYQSSKAVLKHLDYNSRFQLHEQCPSLRNVLKVTPGFLNRLEFVGDCVKINGTTYQLKMTPVKLGSTTNHIQLWINGNLYAKTVSEPQNNKELAYLVCKLLRQAWEAVLYVGTLVYGNLIFPGFPKFFKFHVQHLVIGKDQDASDVLRRFGENFQNSSFKSLELFRTSSFEVPLIQSAEKLIINERMDLSALKSRRVHVEFKIDSKFLTDLIDCWLWNGAVGKTEKEAGSVFIFAMKGFREARMFVDDVKMKFEGKFYVDKR", "values": [{"measurement": "soluble on expression in E. coli", "value": "not soluble"}]}, {"sequence": "MKTAYIAKQRQISFVKSHFSRQLEERLGLIEVQAPILSRVGDGTQDNLSGAEKAVQVKVKALPDAQFEVVHSLAKWKRQTLGQHDFSAGEGLYTHMKALRPDEDRLSPLHSVYVDQWDWERVMGDGERQFSTLKSTVEAIWAGIKATEAAVSEEFGLAPFLPDQIHFVHSQELLSRYPDLDAKGRERAIAKDLGAVFLVGIGGKLSDGHRHDVRAPDYDDWSTPSELGHAGLNGDILVWNPVLEDAFELSSMGIRVDADTLKHQLALTGDEDRLELEWHQALLRGEMPQTIGGGIGQSRLTMLLLQLPHIGQVQAGVWPAAVRESVPSLL", "values": [{"measurement": "soluble on expression in E. coli", "value": "soluble"}]}, {"sequence": "GPLGSMDQSVAIQETLVEGEYCVIAVQGVLCKGDSRQSRLLGLVRYRLENDAQEHALFLYTHRRMAITGDDVSLDQIVPLSKDFMLEEVSPDGELYILGSDVTVQLNTAELKLVFQLPFGSHTRTFLQEVARACPGFDPETRDPEFEWLSRHTCAEPDAES", "values": [{"measurement": "soluble on expression in E. coli", "value": "soluble"}]}, {"sequence": "METTKTNVLEAGAKVLQSNGPVGKLDIYLVGFHPMKDAPEQQMEAHHYCQQVNQDLAQCALYDGNTAEANLTGIEYIISESLFAQLPAQERAFWHPHNGEILSGQLSAPNLPLVAEKELMRSKMNSYGKTWHTWHSRKGTAPGDTLPLGEPMLAWSFSRDGEIQQPLIEQRDKAVTISTAERRADRKDLTELAKPQHGVDALHRHFPEATPIPGVVDAEATAQLEHHHHHH", "values": [{"measurement": "soluble on expression in E. coli", "value": "soluble"}]}, {"sequence": "VDQFISPEQLQGVIYTDGELQADEMTLEIAELLQSAGPWGQHFPEPLFEGQCRILQQRILAGKHLKLMIQFNDRFELYDAIWFNVDLRTFPDLSIKHAQIVYKLDINEFRGNKNIQLRVESLIPL", "values": [{"measurement": "soluble on expression in E. coli", "value": "not soluble"}]}, {"sequence": "AKDNYGKLPLIQSRDSDRTGQKRVKFVDLDEAKDSDKEVLFRARVHNTRQQGATLAFLTLRQQASLIQGLVKANKEGTISKNMVKWAGSLNLESIVLVRGIVKKVDEPIKSATVQNLEIHITKIYTISETPEALPILLEDASRSEAEAEAAGLPVVNLDTRLDYRVIDLRTVTNQAIFRIQAGVCELFREYLATKKFTEVHTPKLLGAPSEGGSSVFEVTYFKGKAYLAQSPQFNKQQLIVADFERVYEIGPVFRAENSNTHRHMTEFTGLDMEMAFEEHYHEVLDTLSELFVFIFSELPKRFAHEIELVRKQYPVEEFKLPKDGKMVRLTYKEGIEMLRAAGKEIGDFEDLSTENEKFLGKLVRDKYDTDFYILDKFPLEIRPFYTMPDPANPKYSNSYDFFMRGEEILSGAQRIHDHALLQERMKAHGLSPEDPGLKDYCDGFSYGCPPHAGGGIGLERVVMFYLDLKNIRRASLFPRDPKRLRP", "values": [{"measurement": "soluble on expression in E. coli", "value": "soluble"}]}]}
